Consider three molecules from US8173397B2, “Folded recombinant catalytic fragments of multidomain serine proteases, preparation and uses thereof” (TargetEx Kft., priority 2002, dated 2012).

The target in one series is T1, C2 (Homo sapiens, UniProt P06681).
T1 construct: from tissue
T1 sequence (P06681 21-752): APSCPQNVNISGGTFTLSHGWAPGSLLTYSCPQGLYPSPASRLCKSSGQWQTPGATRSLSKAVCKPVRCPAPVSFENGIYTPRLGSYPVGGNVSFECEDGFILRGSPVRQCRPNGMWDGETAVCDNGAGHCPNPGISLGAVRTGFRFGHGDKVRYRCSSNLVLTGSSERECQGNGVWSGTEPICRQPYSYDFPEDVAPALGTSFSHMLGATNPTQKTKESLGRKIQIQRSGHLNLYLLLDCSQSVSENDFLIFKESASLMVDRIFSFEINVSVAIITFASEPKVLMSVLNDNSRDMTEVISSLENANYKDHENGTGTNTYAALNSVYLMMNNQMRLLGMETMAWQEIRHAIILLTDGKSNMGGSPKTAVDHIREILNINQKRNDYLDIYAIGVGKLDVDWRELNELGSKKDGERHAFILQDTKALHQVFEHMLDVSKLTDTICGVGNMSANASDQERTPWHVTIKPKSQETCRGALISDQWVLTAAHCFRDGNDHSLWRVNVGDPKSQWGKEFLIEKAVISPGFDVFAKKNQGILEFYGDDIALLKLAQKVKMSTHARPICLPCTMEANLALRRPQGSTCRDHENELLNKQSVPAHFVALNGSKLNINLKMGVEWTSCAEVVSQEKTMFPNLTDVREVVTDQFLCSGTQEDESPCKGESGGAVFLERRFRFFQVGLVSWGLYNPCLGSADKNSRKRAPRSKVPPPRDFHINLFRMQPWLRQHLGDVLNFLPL
Put plainly: C2 cleavage by MASP fragments. It is filed as biochemical. The settings on record: 37° C., pH 7.4; averages of 2 to 4 experiments, standard errors. The procedure: (§1) C2, C3, C3(NH3), C4 cleavage—Serial dilutions of MASP-1 and MASP-2 fragments ranging between concentrations of 1 μM and 10 pM were incubated at 37° C. in 20 mM HEPES, 140 mM NaCl, pH 7.4 with C2, C3, C3(NH3) or C4 at typical concentrations of 0.5-1 μM. The cleavage was followed by SDS-PAGE under reducing conditions. Desirable concentrations of the MASP fragments for further detailed kinetic analysis were chosen to be where half of the protein substrates were hydrolyzed during the first 20 minutes of incubation. The protein substrates C2, C3, C3(NH3) or C4 were then incubated with the selected concentrations of the MASP fragments at 37° C. in 20 mM HEPES, 140 mM NaCl, pH 7.4. Typically 11-13 samples were taken at varying time periods but always within 50 minutes from the beginning of the reaction. Cleavages rates were quantified by measuring the diminution of the cleaved chain visualized by Coomassie stained SDS-PAGs using a GEL DOC 1000 instrument and Molecular Analyst Software for densitometric calculations (Bio-Rad, Hercules, Calif., USA). The reactions were assumed to be of the Michaelis-Menten type. In the case of C3 and C3(NH3) cleavage a further reasonable assumption of KM>>[substrate] was made. The constants KM, kcat and […] were estimated by unbiased non-linear regression methods regressing the data on the following equations: t=([S0]−[S]+KMln([S0]/[S]))/(kcat[E0]) or in the case of C3 and C3(NH3) cleavage on [S]=[S0]exp(−t[E0]kcat/KM).

The next series deals with C4. Nature of the series: C4 cleavage by MASP fragments. It counts as biochemical, human. The note with it: for C4 kcat: 37° C., pH 7.4, averages of 2 to 4 experiments, standard errors. Here is the method: as §1
The next series concerns the target T2, C1-inhibitor (Homo sapiens, UniProt P05155).
T2 construct: Purification of C1-inh and Alpha-2-Macroglobulin; from tissue
T2 sequence (P05155 23-500): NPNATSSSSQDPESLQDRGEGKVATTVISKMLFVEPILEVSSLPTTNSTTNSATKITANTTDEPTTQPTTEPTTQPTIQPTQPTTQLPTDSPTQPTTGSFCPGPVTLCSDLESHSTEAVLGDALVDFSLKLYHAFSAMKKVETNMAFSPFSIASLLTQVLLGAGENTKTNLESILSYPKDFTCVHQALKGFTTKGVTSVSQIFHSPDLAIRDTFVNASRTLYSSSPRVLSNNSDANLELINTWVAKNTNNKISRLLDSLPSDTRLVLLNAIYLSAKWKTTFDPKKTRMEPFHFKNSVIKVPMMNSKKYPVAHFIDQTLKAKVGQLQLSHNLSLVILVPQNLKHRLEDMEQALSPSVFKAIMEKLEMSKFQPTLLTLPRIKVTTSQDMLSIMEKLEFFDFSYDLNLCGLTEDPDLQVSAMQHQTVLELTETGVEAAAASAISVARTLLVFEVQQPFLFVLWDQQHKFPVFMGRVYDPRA
Nature of the series: Rate of SDS stable complex formation of 125I-labelled MASP fragments with C1-inhibitor. It counts as biochemical. Here is the method:
To assess the rate of SDS stable complex formation between the MASP-1 and MASP-2 CCP1-CCP2-SP fragments and C1-inhibitor, the ^125I-labelled MASP fragments at concentrations ranging between 30-100 nM were incubated with 100-350 nM C1-inhibitor at 37° C. in 20 mM HEPES, 140 mM NaCl, pH 7.4 for 40 minutes. Typically 11-13 samples were taken at varying time periods. The reactions were stopped by reducing sample buffer containing 0.125 M Tris, 4.8% SDS, 8 M urea 20% glycerol, 720 mM mercaptoethanol, 0.02% bromophenol blue, pH6.8. The samples were further incubated at 37° C. for 30 minutes and run on reducing SDS-PAGE. Cleavages rates were visualized by means of autoradiography and the diminution of the reacted MASP chain was quantified using a GEL DOC 1000 instrument and Molecular Analyst Software for densitometric calculations (Bio-Rad, Hercules, Calif., USA). The kinetic constants were calculated assuming irreversible inhibition proceeded by reversible enzyme-inhibitor complex formation. Using steady-state approximation and neglecting the starting enzyme concentration compared to the starting inhibitor concentration ([I0]>>[E0]) the data was regressed on the following equation using non-linear regression methods: [E]=[E0]exp(−kobst); kobs=k2[I0]/(Ki+[I0]), where kobs is the observed pseudo-first order rate of reaction, k2 is the rate of irreversible enzyme-inhibitor complex formation and Ki is the inhibitory constant.

B1: MASP-2 CCP-SP: E. coli-expressed, refolded human MASP-2 CCP2-SP fragment, Ala-Ser-Met-Thr tag followed by Ile363, ending Phe686 (protein)
chain 1: ASMTIVDCGPPDDLPSGRVEYITGPGVTTYKAVIQYSCEETFYTMKVNDGKYVCEADGFWTSSKGEKSLPVCEPVCGLSARTTGGR
chain 2: IYGGQKAKPGDFPWQVLILGGTTAAGALLYDNWVLTAAHAVYEQKHDASALDIRMGTLKRLSPHYTQAWSEAVFIHEGYTHDAGFDNDIALIKLNNKVVINSNITPICLPRKEAESFMRTDDIGTASGWGLTQRGFLARNLMYVDIPIVDHQKCTAAYEKPPYPRGSVTANMLCAGLESGGKDSCRGDSGGALVFLDSETERWFVGGIVSWGSMNCGEAGQYGVYTKVINYIPWIENIISDF
With B1, the C2 kcat with C2 was 3.0 ± 2.2 s⁻¹. This molecule yielded a C4 kcat in the series with C4 of 2.0 ± 1.0 s⁻¹. For the same molecule, the “increase in the kcat/KM value of C4 cleavage by presence of the CCP2 domain” value in the series with C4 (relative to MASP-2 SP domain alone) is listed as 44 fold.

B2: MASP-2γB: E. coli-expressed, refolded human MASP-2 CCP1-CCP2-SP fragment, Thr287 to Phe686, Ala-Ser-Met tag; purified form starts with Ile291 (protein)
chain 1: IHYTSTAQPCPYPMAPPNGHVSPVQAKYILKDSFSIFCETGYELLQGHLPLKSFTAVCQKDGSWDRPMPACSIVDCGPPDDLPSGRVEYITGPGVTTYKAVIQYSCEETFYTMKVNDGKYVCEADGFWTSSKGEKSLPVCEPVCGLSARTTGGR
chain 2: IYGGQKAKPGDFPWQVLILGGTTAAGALLYDNWVLTAAHAVYEQKHDASALDIRMGTLKRLSPHYTQAWSEAVFIHEGYTHDAGFDNDIALIKLNNKVVINSNITPICLPRKEAESFMRTDDIGTASGWGLTQRGFLARNLMYVDIPIVDHQKCTAAYEKPPYPRGSVTANMLCAGLESGGKDSCRGDSGGALVFLDSETERWFVGGIVSWGSMNCGEAGQYGVYTKVINYIPWIENIISDF
In the case of B2, the “Ki values for the C1-inhibitor reaction, in words” value with C1-inhibitor is on record as “in the nanomolar range”. Besides, the “k2, rate of irreversible enzyme-inhibitor complex formation with C1-inh” value with C1-inhibitor (37° C., pH 7.4) came to 0.008 s⁻¹. In addition, in the series with C1-inhibitor (37° C., pH 7.4, read-out: Ki, reaction with C1-inh), the Ki (usually a measure of affinity in units of concentration, obtained from inhibition or displacement) was 8.8 nM. The “kobs, pseudo-first order rate of reaction with C1-inh” value with C1-inhibitor ([C1-inh] = 350 nM, 37° C., pH 7.4) was determined as 0.0078 s⁻¹. In the series with C2, this molecule yielded a C2 kcat of 1.9 ± 0.8 s⁻¹. This molecule also showed a C4 kcat in the series with C4 of 0.9 ± 0.4 s⁻¹.

B3: MASP-2 SP: E. coli-expressed, refolded human MASP-2 serine protease domain, Ala-Ser-Met-Thr tag followed by Pro432, ending Phe686 (protein)
chain 1: ASMTPVCGLSARTTGGR
chain 2: IYGGQKAKPGDFPWQVLILGGTTAAGALLYDNWVLTAAHAVYEQKHDASALDIRMGTLKRLSPHYTQAWSEAVFIHEGYTHDAGFDNDIALIKLNNKVVINSNITPICLPRKEAESFMRTDDIGTASGWGLTQRGFLARNLMYVDIPIVDHQKCTAAYEKPPYPRGSVTANMLCAGLESGGKDSCRGDSGGALVFLDSETERWFVGGIVSWGSMNCGEAGQYGVYTKVINYIPWIENIISDF
As for B3, the C2 kcat in the series with C2 amounted to 3.9 ± 3.0 s⁻¹. Besides, in the series on C4, the C4 kcat worked out at 0.20 ± 0.06 s⁻¹.
